Measurements taken from patent US20230080842A1 (WUHAN YZY BIOPHARMA, published 2023).

B1: Y116-B1 (bispecific antibody)
light: DIQMTQSPSSLSASVGDRVTITCKASQDVGIAVAWYQQKPGKVPKLLIYWASTRHTGVPDRFSGSGSGTDFTLTISSLQPEDVATYYCQQYSSYPYTFGQGTKVEIKRTVAAPSVFIFPPSDEQLKSGTASVVCLLNNFYPREAKVQWKVDNALQSGNSQESVTEQDSKDSTYSLSSTLTLSKADYEKHKVYACEVTHQGLSSPVTKSFNRGECGAAAGGGGSGGGGSGGGGSEVQLVESGGGVVRPGGSLRLSCAASGFTFDDYGMSWVRQAPGKGLEWVSGINWNGGSTGYADSVKGRFTISRDNAKNSLYLQMNSLRAEDTAVYYCARGRSLLFDYWGQGTLVTVSR
heavy: EVQLVESGGGLVQPGGSLRLSCAASGFDFSRYWMSWVRQAPGKGLEWIGEINPDSSTINYAPSLKDKFIISRDNAKNSLYLQMNSLRAEDTAVYYCARPDGNYWYFDVWGQGTLVTVSSASTKGPSVFPLAPSSKSTSGGTAALGCLVKDYFPEPVTVSWNSGALTSGVHTFPAVLQSSGLYSLSSVVTVPSSSLGTQTYICNVNHKPSNTKVDKKVEPKSCGAAAGGGGSGGGGSSELTQDPAVSVALGQTVRITCQGDSLRSYYASWYQQKPGQAPVLVIYGKNNRPSGIPDRFSGSSSGNTASLTITGAQAEDEADYYCNSRDSSGNHVVFGGGTKLTVLGYPGGGGSDKTHTCPPCPAPPVAGPSVFLFPPKPKDTLMISRTPEVTCVVVDVSHEAPEVQFNWYVDGVEVHNAKTKPREEQFNSTFRVVSVLTVVHQDWLNGKEYKCKVSNKGLPAPIEKTISKTKGQPREPQVYTLPPSRDELTKNQVSLTCLVKGFYPSDIAVEWESNGQPENNYKTTPPVLDSDGSFFLYSKLTVDKSRWQQGNVFSCSVMHEALHNHYTQKSLSLSPGK
B2: Y116-B2 (bispecific antibody)
light: DIQMTQSPSSLSASVGDRVTITCKASQDVGIAVAWYQQKPGKVPKLLIYWASTRHTGVPDRFSGSGSGTDFTLTISSLQPEDVATYYCQQYSSYPYTFGQGTKVEIKRTVAAPSVFIFPPSDEQLKSGTASVVCLLNNFYPREAKVQWKVDNALQSGNSQESVTEQDSKDSTYSLSSTLTLSKADYEKHKVYACEVTHQGLSSPVTKSFNRGECGGGGSEAAAKGGGGSEVQLVESGGGVVRPGGSLRLSCAASGFTFDDYGMSWVRQAPGKGLEWVSGINWNGGSTGYADSVKGRFTISRDNAKNSLYLQMNSLRAEDTAVYYCARGRSLLFDYWGQGTLVTVSR
heavy: EVQLVESGGGLVQPGGSLRLSCAASGFDFSRYWMSWVRQAPGKGLEWIGEINPDSSTINYAPSLKDKFIISRDNAKNSLYLQMNSLRAEDTAVYYCARPDGNYWYFDVWGQGTLVTVSSASTKGPSVFPLAPSSKSTSGGTAALGCLVKDYFPEPVTVSWNSGALTSGVHTFPAVLQSSGLYSLSSVVTVPSSSLGTQTYICNVNHKPSNTKVDKKVEPKSCGGGGSEAAAKGGGGSSELTQDPAVSVALGQTVRITCQGDSLRSYYASWYQQKPGQAPVLVIYGKNNRPSGIPDRFSGSSSGNTASLTITGAQAEDEADYYCNSRDSSGNHVVFGGGTKLTVLGYPGGGGSDKTHTCPPCPAPPVAGPSVFLFPPKPKDTLMISRTPEVTCVVVDVSHEAPEVQFNWYVDGVEVHNAKTKPREEQFNSTFRVVSVLTVVHQDWLNGKEYKCKVSNKGLPAPIEKTISKTKGQPREPQVYTLPPSRDELTKNQVSLTCLVKGFYPSDIAVEWESNGQPENNYKTTPPVLDSDGSFFLYSKLTVDKSRWQQGNVFSCSVMHEALHNHYTQKSLSLSPGK

Biological target: T1, Human SLAMF7 (human, UniProt Q9NQ25 23-226)
T1 construct: also called SLAMF7 antigen; not shown: His tag
Assay: ELISA, plate coated with His-tagged antigen
Procedure: 2) addition of antibody: according to the experimental design, operation was performed at room temperature, and the antibody was diluted in gradient with 1% BSA in PBS. […] The diluted antibody was added into wells of microtiter plate at 200 μl/well, incubated at room temperature for 2h, and then the supernatant was discarded;

Binder | EC50 [nM]
B1 | 0.636
B2 | 0.648
